{"source": "patent CN116199772A", "about": "(YIDAO BIOTECHNOLOGY SUZHOU CO LTD, dated 2023)", "assay_in_all_cases": "indirect ELISA, cross-reaction on 9 HPV type antigens", "key": {"HPV 33亚型抗原": {"biological_target": "T1, HPV 33亚型抗原 (Human papillomavirus type 33, UniProt P06416 1-499)", "T1 construct": "Called only 'HPV 33 antigen'", "T1 sequence": "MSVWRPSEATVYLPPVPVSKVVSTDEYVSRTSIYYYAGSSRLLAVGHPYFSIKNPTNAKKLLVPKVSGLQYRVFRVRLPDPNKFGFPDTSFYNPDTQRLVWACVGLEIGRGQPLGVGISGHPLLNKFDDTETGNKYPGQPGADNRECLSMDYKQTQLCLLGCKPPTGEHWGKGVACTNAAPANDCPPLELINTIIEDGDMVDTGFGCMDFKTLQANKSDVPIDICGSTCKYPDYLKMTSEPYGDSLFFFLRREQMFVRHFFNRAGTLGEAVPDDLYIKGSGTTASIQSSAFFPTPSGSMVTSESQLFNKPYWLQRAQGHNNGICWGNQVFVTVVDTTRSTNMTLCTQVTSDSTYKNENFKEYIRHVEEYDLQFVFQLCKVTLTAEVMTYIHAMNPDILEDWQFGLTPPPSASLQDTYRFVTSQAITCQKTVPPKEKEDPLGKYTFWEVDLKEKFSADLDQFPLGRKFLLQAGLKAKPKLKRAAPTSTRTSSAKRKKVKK"}, "HPV 45亚型抗原": {"biological_target": "T2, HPV 45亚型抗原 (Human papillomavirus type 45, UniProt P36741 30-539)", "T2 construct": "Called only 'HPV 45 antigen'", "T2 sequence": "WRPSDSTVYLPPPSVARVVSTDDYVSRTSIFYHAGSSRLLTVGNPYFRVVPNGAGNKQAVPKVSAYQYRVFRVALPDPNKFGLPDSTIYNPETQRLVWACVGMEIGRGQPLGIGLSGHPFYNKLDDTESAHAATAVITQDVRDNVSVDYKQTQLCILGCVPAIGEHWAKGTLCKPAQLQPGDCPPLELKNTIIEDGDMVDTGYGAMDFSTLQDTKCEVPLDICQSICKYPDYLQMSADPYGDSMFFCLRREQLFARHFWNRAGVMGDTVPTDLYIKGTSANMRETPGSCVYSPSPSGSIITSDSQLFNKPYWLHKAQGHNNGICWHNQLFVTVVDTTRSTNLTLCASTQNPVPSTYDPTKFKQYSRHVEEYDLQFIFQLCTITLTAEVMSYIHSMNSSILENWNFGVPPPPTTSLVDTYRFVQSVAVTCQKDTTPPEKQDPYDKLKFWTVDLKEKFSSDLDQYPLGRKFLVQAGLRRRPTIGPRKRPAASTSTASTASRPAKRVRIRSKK"}, "HPV11亚型抗原": {"biological_target": "T3, HPV11亚型抗原 (Human papillomavirus type 11, UniProt P04012 1-501)", "T3 construct": "Called only 'HPV11 antigen'", "T3 sequence": "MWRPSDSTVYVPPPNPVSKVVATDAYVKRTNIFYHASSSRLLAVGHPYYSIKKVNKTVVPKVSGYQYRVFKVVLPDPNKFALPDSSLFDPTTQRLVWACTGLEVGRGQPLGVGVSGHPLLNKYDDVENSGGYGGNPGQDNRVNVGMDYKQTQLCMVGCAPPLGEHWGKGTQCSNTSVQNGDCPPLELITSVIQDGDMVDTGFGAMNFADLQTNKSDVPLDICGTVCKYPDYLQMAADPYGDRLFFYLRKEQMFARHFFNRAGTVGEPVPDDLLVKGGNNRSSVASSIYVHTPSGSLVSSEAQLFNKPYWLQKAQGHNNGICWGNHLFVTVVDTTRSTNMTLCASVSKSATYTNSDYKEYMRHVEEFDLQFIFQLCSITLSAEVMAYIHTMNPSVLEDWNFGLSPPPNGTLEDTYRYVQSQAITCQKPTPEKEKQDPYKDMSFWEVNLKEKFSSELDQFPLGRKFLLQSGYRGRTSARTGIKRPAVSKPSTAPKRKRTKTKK"}, "HPV 58亚型抗原": {"biological_target": "T4, HPV 58亚型抗原 (Human papillomavirus type 58, UniProt P26535 27-524)", "T4 construct": "Called only 'HPV 58 antigen'", "T4 sequence": "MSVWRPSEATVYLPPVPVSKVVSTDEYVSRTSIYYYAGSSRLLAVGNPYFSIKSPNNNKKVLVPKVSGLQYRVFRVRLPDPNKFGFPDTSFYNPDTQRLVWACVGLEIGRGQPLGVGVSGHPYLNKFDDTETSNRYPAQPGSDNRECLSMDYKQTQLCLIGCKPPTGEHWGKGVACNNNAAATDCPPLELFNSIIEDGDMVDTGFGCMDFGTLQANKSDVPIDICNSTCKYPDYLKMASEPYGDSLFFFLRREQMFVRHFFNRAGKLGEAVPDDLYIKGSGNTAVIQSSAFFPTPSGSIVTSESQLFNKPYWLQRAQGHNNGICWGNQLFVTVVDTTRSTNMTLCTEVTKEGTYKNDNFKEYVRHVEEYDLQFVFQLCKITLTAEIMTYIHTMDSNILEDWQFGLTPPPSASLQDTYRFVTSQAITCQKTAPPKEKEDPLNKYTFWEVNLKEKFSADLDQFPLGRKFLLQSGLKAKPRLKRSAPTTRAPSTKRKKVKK"}, "HPV 16亚型抗原": {"biological_target": "T5, HPV 16亚型抗原 (Human papillomavirus type 16, UniProt P03101 1-505)", "T5 construct": "Called only 'HPV 16 antigen'", "T5 sequence": "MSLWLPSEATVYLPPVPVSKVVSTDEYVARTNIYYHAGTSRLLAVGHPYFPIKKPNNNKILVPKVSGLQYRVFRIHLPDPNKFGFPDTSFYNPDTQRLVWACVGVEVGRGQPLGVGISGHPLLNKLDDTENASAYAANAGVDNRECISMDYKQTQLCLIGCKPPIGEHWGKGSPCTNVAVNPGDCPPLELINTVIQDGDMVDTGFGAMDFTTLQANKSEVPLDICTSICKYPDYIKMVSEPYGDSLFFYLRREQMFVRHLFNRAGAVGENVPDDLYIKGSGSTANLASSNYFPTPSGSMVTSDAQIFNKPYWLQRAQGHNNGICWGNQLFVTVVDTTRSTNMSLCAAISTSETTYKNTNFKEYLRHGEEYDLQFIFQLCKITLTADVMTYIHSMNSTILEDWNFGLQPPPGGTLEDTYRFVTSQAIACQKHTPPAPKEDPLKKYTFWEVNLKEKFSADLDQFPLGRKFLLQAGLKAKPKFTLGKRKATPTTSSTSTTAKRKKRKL"}, "HPV18亚型抗原": {"biological_target": "T6, HPV18亚型抗原 (Human papillomavirus type 18, UniProt P06794 62-568)", "T6 construct": "Called only 'HPV18 antigen'", "T6 sequence": "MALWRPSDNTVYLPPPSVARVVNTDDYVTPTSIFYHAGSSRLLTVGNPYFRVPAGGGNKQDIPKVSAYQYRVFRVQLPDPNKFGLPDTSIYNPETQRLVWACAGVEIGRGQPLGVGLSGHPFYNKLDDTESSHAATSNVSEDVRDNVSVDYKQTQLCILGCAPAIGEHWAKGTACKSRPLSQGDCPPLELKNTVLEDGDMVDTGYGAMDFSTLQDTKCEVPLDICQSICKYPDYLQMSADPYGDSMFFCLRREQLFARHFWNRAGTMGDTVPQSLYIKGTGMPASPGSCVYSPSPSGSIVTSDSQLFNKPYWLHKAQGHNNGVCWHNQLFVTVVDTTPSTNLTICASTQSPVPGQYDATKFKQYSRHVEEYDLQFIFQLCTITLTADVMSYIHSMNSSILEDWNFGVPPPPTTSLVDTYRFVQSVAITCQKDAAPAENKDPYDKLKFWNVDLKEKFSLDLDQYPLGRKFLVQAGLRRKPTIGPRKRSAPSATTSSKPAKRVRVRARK"}}, "data": [{"binder": "HPV31型单克隆抗体(7H9) (antibody, V domains shown, also called 7H9抗体; HPV31型(7H9)鼠单抗) VH: QIQLVQSGPELKKPGETVKISCKASGYTFTNYGMNWVKQAPGKGLKWMGWINTYTGEPTYADDFKGRFAFSLETSANTAYLQITNLKNEDMATYFCARRITMEYYYGLDCWGQGTSVTVSS VL: QAVVTQESALTTSPGETVTLTCRSSTGAVTTSNYANWVQEKPDHLFSGLIGGTNNRVPGVPARFSGSLIGDKAALTITGAQTEDEAIYFCALWYSNHWVFGGGTKLTVL", "values": [{"measurement": "binding result", "setting": "HPV 33亚型抗原", "result": "no binding (tested: 抗原1μg/ml包被; 杂交瘤细胞上清20倍稀释)"}, {"measurement": "binding result", "setting": "HPV 45亚型抗原", "result": "no binding (tested: 抗原1μg/ml包被; 杂交瘤细胞上清20倍稀释)"}, {"measurement": "binding result", "setting": "HPV11亚型抗原", "result": "no binding (tested: 抗原1μg/ml包被; 杂交瘤细胞上清20倍稀释)"}, {"measurement": "binding result", "setting": "HPV 58亚型抗原", "result": "no binding (tested: 抗原1μg/ml包被; 杂交瘤细胞上清20倍稀释)"}, {"measurement": "binding result", "setting": "HPV 16亚型抗原", "result": "no binding (tested: 抗原1μg/ml包被; 杂交瘤细胞上清20倍稀释)"}, {"measurement": "binding result", "setting": "HPV18亚型抗原", "result": "no binding (tested: 抗原1μg/ml包被; 杂交瘤细胞上清20倍稀释)"}]}]}
